From US20240043505A1
Like-named read-outs stand apart in the source and are kept apart here.

B1: Nb21 (VHH)
VHH: QVQLVESGGGLVQAGGSLRLSCAVSGLGAHRVGWFRRAPGKEREFVAAIGANGGNTNYLDSVKGRFTISRDNAKNTIYLQMNSLKPQDTAVYYCAARDIETAEYTYWGQGTQVTVSS
B2: Nb17 (VHH)
VHH: HVQLVESGGGLVQAGGSLRLSCAASGSIFSSNAMSWYRQAPGKQRELVASITSGGNADYADSVKGRFTISRDKNTVYPEMSSLKPADTAVYYCHAVGQEASAYAPRAYWGQGTQVTVSS

Columns and labels:
Settings in all cases: remark: other sources report otherwise
[1] = biological target: N439K
[2] = biological target: Y453F
[3] = biological target: N501Y
[4] = biological target: K417N
[5] = biological target: A475V
[6] = biological target: T1, SARS-CoV-2 spike receptor-binding domain (RBD) (SARS-CoV-2), P0DTC2; assay: indirect ELISA on coated RBD ('ELISA affinity')
[7] = biological target: T1, SARS-CoV-2 spike receptor-binding …; assay: SPR (Biacore 3000), RBD immobilised
[8] = biological target: T1, SARS-CoV-2 spike receptor-binding …
[9] = biological target: T1, SARS-CoV-2 spike receptor-binding …; remark: listed apart in the source
[10] = biological target: T1, SARS-CoV-2 spike receptor-binding …; assay: ELISA; the sheet does not name the coated protein, the legend paragraph 51 says RBD
[11] = biological target: T1, SARS-CoV-2 spike receptor-binding …; remark: listed apart in the source

Binder	binding affinity fold change relative to RBD WT [1] [fold]	binding affinity fold change relative to RBD WT [2] [fold]	binding affinity fold change relative to RBD WT [3] [fold]	binding affinity fold change relative to RBD WT [4] [fold]	binding affinity fold change relative to RBD WT [5] [fold]	IC50 [6] [pM]	Kd [7] [pM]	koff [7] [s⁻¹]	kon [7] [M⁻¹ s⁻¹]	IC50 [8] [pM]	EC50 (read off the curve) [9] [pM]	EC50 (read off the curve) [10] [pM]	EC50 (read off the curve) [11] [pM]
B1	1.18	1.04	-2.83	-1.43	-1.31	300	< 1	< 1e-06	3.79e+06	420	1000	5000	
B2	1.33	1.61	1.5	-1.2	1.16	450				690			1000
